Target: T1, VP16-AR containing the residues 37 to 919 (human), P10275
T1 chain: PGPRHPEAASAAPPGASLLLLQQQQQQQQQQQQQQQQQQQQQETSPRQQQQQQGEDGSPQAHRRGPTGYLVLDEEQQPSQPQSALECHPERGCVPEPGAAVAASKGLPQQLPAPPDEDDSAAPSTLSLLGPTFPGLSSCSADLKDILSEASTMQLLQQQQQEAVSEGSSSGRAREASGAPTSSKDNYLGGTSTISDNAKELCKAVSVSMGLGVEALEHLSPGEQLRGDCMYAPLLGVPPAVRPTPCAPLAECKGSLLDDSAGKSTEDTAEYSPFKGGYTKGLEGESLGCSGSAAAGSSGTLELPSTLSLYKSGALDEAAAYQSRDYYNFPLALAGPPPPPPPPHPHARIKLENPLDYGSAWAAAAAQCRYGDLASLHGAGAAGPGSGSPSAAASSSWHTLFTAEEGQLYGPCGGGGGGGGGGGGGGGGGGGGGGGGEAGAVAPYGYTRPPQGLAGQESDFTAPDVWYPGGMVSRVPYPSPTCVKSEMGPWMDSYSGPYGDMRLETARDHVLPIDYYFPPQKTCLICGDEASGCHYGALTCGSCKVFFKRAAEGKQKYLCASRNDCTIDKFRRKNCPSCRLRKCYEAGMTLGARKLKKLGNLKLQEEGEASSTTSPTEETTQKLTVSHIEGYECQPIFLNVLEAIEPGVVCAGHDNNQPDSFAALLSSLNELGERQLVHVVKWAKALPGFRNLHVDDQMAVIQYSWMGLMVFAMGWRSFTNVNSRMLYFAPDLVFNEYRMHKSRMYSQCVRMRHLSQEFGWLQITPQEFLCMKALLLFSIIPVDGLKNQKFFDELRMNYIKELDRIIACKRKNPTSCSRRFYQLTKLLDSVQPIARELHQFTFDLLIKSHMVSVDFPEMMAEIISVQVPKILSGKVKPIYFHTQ
Assay: cell-based or functional assay

B1: D30 peptide (…), LXXLL motif peptide (peptide)
peptide: HPTHSSRLWELLMEATPTM
modifications: not checked
Q: With B1 as the binder, how does the two-hybrid peptide assay (pG4-LUC reporter, PC-3 cells, with against without 10 nM DHT) read?
A: 350 fold

— patent US20080050387A1, “Non-Androgen Dependent Roles for Androgen Receptor and Non-Androgen Related Inhibitors of Androgen Receptor” (priority 2003, published 2008)
